Here are results for two substances from patent US20240287161A1.

One may read the EC50 as the midpoint of the concentration-response curve.

Assay [1] has as its target SARS-CoV-2 spike receptor-binding domain (RBD, amino acids 322 to 536), histidine-tagged (Example 2) (SARS-CoV-2) (UniProt P0DTC2).
For assay [2], the target named is SARS-CoV2 S protein on VSV pseudovirus (SARS-CoV-2) (UniProt P0DTC2).
In assay [3] the target is Authentic CoV2 (SARS-CoV-2 JPN/TY/WK-521).

For the substance REGN10933 (antibody), the concentration giving a half-maximal response (EC50) in assay [1] was 0.194 µg/mL. In assay [2], this substance registered an IC50, pseudovirus neutralization of 0.0089 µg/mL. The same substance came in with an IC50, authentic virus neutralization in assay [3] of 0.0381 µg/mL.

The substance REGN10987 (antibody) registered a concentration giving a half-maximal response (EC50) in assay [1] of 3.3 µg/mL. Moreover, in assay [2], the IC50, pseudovirus neutralization is 0.0416 µg/mL. This substance gave an IC50, authentic virus neutralization in assay [3] of 0.134 µg/mL.
